{
  "source": "paper PMC5118228",
  "about": "(EJNMMI Research, 2016)",
  "experiment": "in vivo",
  "conditions": "male, athymic nu/nu, mouse, iv, total radioactivity",
  "key": {"[1]": {"conditions": "0.3 nmol, uptake in Red blood cell"}, "[2]": {"conditions": "1 nmol, uptake in Red blood cell"}, "[3]": {"conditions": "3 nmol, uptake in Red blood cell"}},
  "data": [
    {"compound": "C[C@@H](O)[C@H](NC(=O)[C@@H]1CSSC[C@H](NC(=O)[C@@H](Cc2ccccc2)NC(=O)CN2CCN(CC(=O)O)CCN(CC(=O)O)CCN(CC(=O)O)CC2)C(=O)N[C@@H](Cc2ccc(O)cc2)C(=O)N[C@H](Cc2c[nH]c3ccccc23)C(=O)N[C@@H](CCCCN)C(=O)N[C@@H]([C@@H](C)O)C(=O)N1)C(=O)O", "note": "[^111In-DOTATATE, metal not drawn]", "values": [
      {"measurement": "tissue uptake at 0.05 h", "setting": "0.3 nmol, uptake in Pituitary", "value": 0.3, "unit": "%ID/g"},
      {"measurement": "tissue uptake at 10 min", "setting": "0.3 nmol, uptake in Pituitary", "value": "0.2 ± 0.05", "unit": "%ID/g"},
      {"measurement": "tissue uptake at 0.5 h", "setting": "0.3 nmol, uptake in Pituitary", "value": 0.1, "unit": "%ID/g"},
      {"measurement": "tissue uptake at 1 h", "setting": "0.3 nmol, uptake in Pituitary", "value": "< 0.05", "unit": "%ID/g"},
      {"measurement": "tissue uptake at 0.05 h", "setting": "0.3 nmol, uptake in Plasma", "value": "13.4 ± 1.4", "unit": "%ID/g"},
      {"measurement": "tissue uptake at 10 min", "setting": "0.3 nmol, uptake in Plasma", "value": "7.2 ± 2", "unit": "%ID/g"},
      {"measurement": "tissue uptake at 0.5 h", "setting": "0.3 nmol, uptake in Plasma", "value": "3.4 ± 0.5", "unit": "%ID/g"},
      {"measurement": "tissue uptake at 1 h", "setting": "0.3 nmol, uptake in Plasma", "value": "0.7 ± 0.2", "unit": "%ID/g"},
      {"measurement": "tissue uptake at 0.05 h", "setting": "[1]", "value": "2.6 ± 0.6", "unit": "%ID/g"},
      {"measurement": "tissue uptake at 10 min", "setting": "[1]", "value": "1.3 ± 0.4", "unit": "%ID/g"},
      {"measurement": "tissue uptake at 0.5 h", "setting": "[1]", "value": "0.6 ± 0.1", "unit": "%ID/g"},
      {"measurement": "tissue uptake at 1 h", "setting": "[1]", "value": "< 0.05", "unit": "%ID/g"},
      {"measurement": "tissue uptake at 10 min", "setting": "0.3 nmol, uptake in Stomach", "value": "3.9 ± 0.4", "unit": "%ID/g"},
      {"measurement": "tissue uptake at 0.5 h", "setting": "0.3 nmol, uptake in Stomach", "value": "3.5 ± 0.2", "unit": "%ID/g"},
      {"measurement": "tissue uptake at 1 h", "setting": "0.3 nmol, uptake in Stomach", "value": "3.4 ± 0.8", "unit": "%ID/g"},
      {"measurement": "tissue uptake at 10 min", "setting": "0.3 nmol, uptake in Tumor", "value": "8 ± 1.2", "unit": "%ID/g"},
      {"measurement": "tissue uptake at 0.5 h", "setting": "0.3 nmol, uptake in Tumor", "value": "9.9 ± 3", "unit": "%ID/g"},
      {"measurement": "tissue uptake at 1 h", "setting": "0.3 nmol, uptake in Tumor", "value": "9.9 ± 0.7", "unit": "%ID/g"},
      {"measurement": "tissue uptake at 0.5 h", "setting": "1 nmol, uptake in Adrenals", "value": "0.5 ± 0.09", "unit": "%ID/g"},
      {"measurement": "tissue uptake at 1 h", "setting": "1 nmol, uptake in Adrenals", "value": "0.5 ± 0.05", "unit": "%ID/g"},
      {"measurement": "tissue uptake at 0.05 h", "setting": "1 nmol, uptake in Kidney", "value": "17.5 ± 9.7", "unit": "%ID/g"},
      {"measurement": "tissue uptake at 10 min", "setting": "1 nmol, uptake in Kidney", "value": "14.2 ± 7", "unit": "%ID/g"},
      {"measurement": "tissue uptake at 0.5 h", "setting": "1 nmol, uptake in Kidney", "value": "6 ± 1.8", "unit": "%ID/g"},
      {"measurement": "tissue uptake at 1 h", "setting": "1 nmol, uptake in Kidney", "value": "14.1 ± 3.4", "unit": "%ID/g"},
      {"measurement": "tissue uptake at 0.05 h", "setting": "1 nmol, uptake in Muscles", "value": "1.2 ± 0.4", "unit": "%ID/g"},
      {"measurement": "tissue uptake at 10 min", "setting": "1 nmol, uptake in Muscles", "value": "1 ± 0.5", "unit": "%ID/g"},
      {"measurement": "tissue uptake at 0.5 h", "setting": "1 nmol, uptake in Muscles", "value": "0.2 ± 0.09", "unit": "%ID/g"},
      {"measurement": "tissue uptake at 1 h", "setting": "1 nmol, uptake in Muscles", "value": "< 0.05", "unit": "%ID/g"},
      {"measurement": "tissue uptake at 0.05 h", "setting": "1 nmol, uptake in Pancreas", "value": "3.5 ± 2.4", "unit": "%ID/g"},
      {"measurement": "tissue uptake at 0.5 h", "setting": "1 nmol, uptake in Pancreas", "value": "0.7 ± 0.2", "unit": "%ID/g"},
      {"measurement": "tissue uptake at 1 h", "setting": "1 nmol, uptake in Pancreas", "value": "1.5 ± 0.3", "unit": "%ID/g"},
      {"measurement": "tissue uptake at 0.05 h", "setting": "1 nmol, uptake in Pituitary", "value": "0.1 ± 0.09", "unit": "%ID/g"},
      {"measurement": "tissue uptake at 10 min", "setting": "1 nmol, uptake in Pituitary", "value": "0.8 ± 1.4", "unit": "%ID/g"},
      {"measurement": "tissue uptake at 0.5 h", "setting": "1 nmol, uptake in Pituitary", "value": "< 0.05", "unit": "%ID/g"},
      {"measurement": "tissue uptake at 1 h", "setting": "1 nmol, uptake in Pituitary", "value": "< 0.05", "unit": "%ID/g"},
      {"measurement": "tissue uptake at 0.05 h", "setting": "1 nmol, uptake in Plasma", "value": "11.3 ± 4.9", "unit": "%ID/g"},
      {"measurement": "tissue uptake at 10 min", "setting": "1 nmol, uptake in Plasma", "value": "7.6 ± 3.1", "unit": "%ID/g"},
      {"measurement": "tissue uptake at 1 h", "setting": "1 nmol, uptake in Plasma", "value": "0.6 ± 0.2", "unit": "%ID/g"},
      {"measurement": "tissue uptake at 0.05 h", "setting": "[2]", "value": "2.3 ± 0.4", "unit": "%ID/g"},
      {"measurement": "tissue uptake at 10 min", "setting": "[2]", "value": "1.3 ± 0.5", "unit": "%ID/g"},
      {"measurement": "tissue uptake at 0.5 h", "setting": "[2]", "value": "0.3 ± 0.1", "unit": "%ID/g"},
      {"measurement": "tissue uptake at 1 h", "setting": "[2]", "value": "0.4 ± 0.1", "unit": "%ID/g"},
      {"measurement": "tissue uptake at 0.05 h", "setting": "1 nmol, uptake in Stomach", "value": "2.4 ± 1.1", "unit": "%ID/g"},
      {"measurement": "tissue uptake at 0.5 h", "setting": "1 nmol, uptake in Stomach", "value": "0.8 ± 0.2", "unit": "%ID/g"},
      {"measurement": "tissue uptake at 0.05 h", "setting": "1 nmol, uptake in Tumor", "value": "5.6 ± 2", "unit": "%ID/g"},
      {"measurement": "tissue uptake at 10 min", "setting": "1 nmol, uptake in Tumor", "value": "6.7 ± 2.9", "unit": "%ID/g"},
      {"measurement": "tissue uptake at 0.5 h", "setting": "1 nmol, uptake in Tumor", "value": "2.9 ± 0.6", "unit": "%ID/g"},
      {"measurement": "tissue uptake at 1 h", "setting": "1 nmol, uptake in Tumor", "value": "7 ± 1.1", "unit": "%ID/g"},
      {"measurement": "tissue uptake at 10 min", "setting": "3 nmol, uptake in Adrenals", "value": "1.1 ± 0.7", "unit": "%ID/g"},
      {"measurement": "tissue uptake at 0.5 h", "setting": "3 nmol, uptake in Adrenals", "value": "0.6 ± 0.2", "unit": "%ID/g"},
      {"measurement": "tissue uptake at 1 h", "setting": "3 nmol, uptake in Adrenals", "value": "0.3 ± 0.06", "unit": "%ID/g"},
      {"measurement": "tissue uptake at 0.05 h", "setting": "3 nmol, uptake in Kidney", "value": "19.1 ± 3.1", "unit": "%ID/g"},
      {"measurement": "tissue uptake at 10 min", "setting": "3 nmol, uptake in Kidney", "value": "14.6 ± 2.9", "unit": "%ID/g"},
      {"measurement": "tissue uptake at 0.5 h", "setting": "3 nmol, uptake in Kidney", "value": "14.5 ± 1.1", "unit": "%ID/g"},
      {"measurement": "tissue uptake at 1 h", "setting": "3 nmol, uptake in Kidney", "value": "14.7 ± 2.1", "unit": "%ID/g"},
      {"measurement": "tissue uptake at 0.05 h", "setting": "3 nmol, uptake in Muscles", "value": "1.3 ± 0.3", "unit": "%ID/g"},
      {"measurement": "tissue uptake at 10 min", "setting": "3 nmol, uptake in Muscles", "value": "0.8 ± 0.3", "unit": "%ID/g"},
      {"measurement": "tissue uptake at 0.5 h", "setting": "3 nmol, uptake in Muscles", "value": "0.3 ± 0.1", "unit": "%ID/g"},
      {"measurement": "tissue uptake at 1 h", "setting": "3 nmol, uptake in Muscles", "value": "< 0.05", "unit": "%ID/g"},
      {"measurement": "tissue uptake at 0.05 h", "setting": "3 nmol, uptake in Pancreas", "value": "2.2 ± 0.4", "unit": "%ID/g"},
      {"measurement": "tissue uptake at 10 min", "setting": "3 nmol, uptake in Pancreas", "value": "1.6 ± 0.2", "unit": "%ID/g"},
      {"measurement": "tissue uptake at 0.5 h", "setting": "3 nmol, uptake in Pancreas", "value": "1 ± 0.2", "unit": "%ID/g"},
      {"measurement": "tissue uptake at 1 h", "setting": "3 nmol, uptake in Pancreas", "value": "0.8 ± 1", "unit": "%ID/g"},
      {"measurement": "tissue uptake at 0.05 h", "setting": "3 nmol, uptake in Pituitary", "value": "0.2 ± 0.06", "unit": "%ID/g"},
      {"measurement": "tissue uptake at 10 min", "setting": "3 nmol, uptake in Pituitary", "value": "0.1 ± 0.06", "unit": "%ID/g"},
      {"measurement": "tissue uptake at 0.5 h", "setting": "3 nmol, uptake in Pituitary", "value": "0.08 ± 0.06", "unit": "%ID/g"},
      {"measurement": "tissue uptake at 1 h", "setting": "3 nmol, uptake in Pituitary", "value": "< 0.05", "unit": "%ID/g"},
      {"measurement": "tissue uptake at 0.05 h", "setting": "3 nmol, uptake in Plasma", "value": "13.8 ± 1.7", "unit": "%ID/g"},
      {"measurement": "tissue uptake at 10 min", "setting": "3 nmol, uptake in Plasma", "value": "8.4 ± 0.9", "unit": "%ID/g"},
      {"measurement": "tissue uptake at 1 h", "setting": "3 nmol, uptake in Plasma", "value": "0.6 ± 0.2", "unit": "%ID/g"},
      {"measurement": "tissue uptake at 10 min", "setting": "[3]", "value": "2.4 ± 0.3", "unit": "%ID/g"},
      {"measurement": "tissue uptake at 0.5 h", "setting": "[3]", "value": "0.6 ± 0.2", "unit": "%ID/g"},
      {"measurement": "tissue uptake at 1 h", "setting": "[3]", "value": "< 0.05", "unit": "%ID/g"},
      {"measurement": "tissue uptake at 0.05 h", "setting": "3 nmol, uptake in Stomach", "value": "3.2 ± 0.5", "unit": "%ID/g"},
      {"measurement": "tissue uptake at 10 min", "setting": "3 nmol, uptake in Stomach", "value": "2.3 ± 0.2", "unit": "%ID/g"},
      {"measurement": "tissue uptake at 0.5 h", "setting": "3 nmol, uptake in Stomach", "value": "1.5 ± 0.6", "unit": "%ID/g"},
      {"measurement": "tissue uptake at 1 h", "setting": "3 nmol, uptake in Stomach", "value": "1.6 ± 0.7", "unit": "%ID/g"},
      {"measurement": "tissue uptake at 0.05 h", "setting": "3 nmol, uptake in Tumor", "value": "2.9 ± 1.1", "unit": "%ID/g"}
    ]}
  ]
}
